# Reference: patent US20180028641A1 (GlaxoSmithKline, published 2018)
# B1: recombinant NMB1870 (strain MC58, variant 1), His-tag fusion expressed in E. coli without the leader peptide (other)
# chain: CSSGGGGVAADIGAGLADALTAPLDHKDKGLQSLTLDQSVRKNEKLKLAAQGAEKTYGNGDSLNTGKLKNDKVSRFDFIRQIEVDGQLITLESGEFQVYKQSHSALTAFQTEQIQDSEHSGKMVAKRQFRIGDIAGEHTSFDKLPEGGRATYRGTAFGSDDAGGKLTYTIDFAAKQGNGKIEHLKSPELNVDLAAADIKPDGKRHAVISGSVLYNQAEKGSYSLGIFGGKAQEVAGSAEVKTVNGIRHIGLAAKQ
# notes: also called purified NMB1870; the recombinant protein; not shown: His-tag (pET-21b+ vector)
# Biological target: T1, human transferrin hTF (Sigma T-4132) (human, UniProt P02787 20-698)
# T1 construct: Bought protein
# T1 sequence (P02787 20-698 limits assumed): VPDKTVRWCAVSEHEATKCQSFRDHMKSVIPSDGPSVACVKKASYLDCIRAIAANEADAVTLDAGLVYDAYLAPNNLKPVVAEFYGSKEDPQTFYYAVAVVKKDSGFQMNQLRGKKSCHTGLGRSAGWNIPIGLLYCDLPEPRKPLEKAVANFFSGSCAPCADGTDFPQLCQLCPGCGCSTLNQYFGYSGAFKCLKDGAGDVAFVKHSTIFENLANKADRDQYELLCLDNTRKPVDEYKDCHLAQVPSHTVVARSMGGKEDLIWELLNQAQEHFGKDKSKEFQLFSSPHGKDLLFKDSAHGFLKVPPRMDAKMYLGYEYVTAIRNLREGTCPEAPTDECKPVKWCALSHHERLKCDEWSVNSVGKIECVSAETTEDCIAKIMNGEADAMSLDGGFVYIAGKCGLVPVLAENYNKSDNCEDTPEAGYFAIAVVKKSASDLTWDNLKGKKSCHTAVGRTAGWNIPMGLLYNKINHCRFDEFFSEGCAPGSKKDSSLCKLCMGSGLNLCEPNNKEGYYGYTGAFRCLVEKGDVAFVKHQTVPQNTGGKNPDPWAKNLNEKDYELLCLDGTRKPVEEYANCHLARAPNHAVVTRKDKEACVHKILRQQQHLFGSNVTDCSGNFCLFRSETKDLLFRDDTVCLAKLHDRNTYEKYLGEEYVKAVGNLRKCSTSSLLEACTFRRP
# Assay: gel filtration (Superdex 200 PC 3.2/30) of each protein and of the mixture, fractions analysed by SDS-PAGE
binder,measurement,value
B1,binding result,no binding (tested: 7 µM)
